Data on six molecules can be found in US20050282743A1, “Molecular interactions in cells” (Arbor Vita Corporation, priority 2001, published 2005).

For assay [1], the target named is T1, GST-FLJ00011 PDZ domain 1 (Homo sapiens (Human)), Q9H5P4.
T1 chain: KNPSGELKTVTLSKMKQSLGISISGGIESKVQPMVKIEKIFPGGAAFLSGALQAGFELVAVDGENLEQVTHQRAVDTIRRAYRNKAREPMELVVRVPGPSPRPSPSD
As to the kind of experiment: G assay titration, PDZ 5 ug/ml.

In assay [2] the target is GST-PSD95 PDZ domain 1 (Homo sapiens). As to the kind of experiment: G assay titration, PDZ 5 ug/ml.
The target of assay [3] is T2, GST-Outer Membrane PDZ domain 1 (Homo sapiens (Human)), P57105.
T2 chain: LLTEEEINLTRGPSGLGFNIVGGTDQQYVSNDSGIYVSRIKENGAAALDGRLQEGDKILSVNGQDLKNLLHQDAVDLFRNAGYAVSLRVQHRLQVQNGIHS
Kind of assay: G assay titration, PDZ 5 ug/ml.

The target in assay [4] is T3, GST-NeDLG PDZ domain 2 (Rattus norvegicus (Rat)), Q62936.
T3 chain: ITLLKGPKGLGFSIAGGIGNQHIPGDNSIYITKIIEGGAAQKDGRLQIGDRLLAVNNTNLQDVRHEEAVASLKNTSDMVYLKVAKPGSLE
As to the kind of experiment: G assay titration, PDZ 5 ug/ml.

For assay [5], the target named is T4, GST-FLJ 10324 PDZ domain 1 [GST: P08515].
T4 chain: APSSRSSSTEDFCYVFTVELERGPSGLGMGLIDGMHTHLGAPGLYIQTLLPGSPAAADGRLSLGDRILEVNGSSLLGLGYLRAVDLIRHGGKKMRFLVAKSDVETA
Kind of assay: G assay titration, PDZ 5 ug/ml.

Assay [6] has as its target GST-TAX IP2 PDZ domain 1 [GST: P08515]. As to the kind of experiment: G assay titration, PDZ 5 ug/ml.
For assay [7], the target named is T5, GST-SITAC-18 PDZ domain 2 (Homo sapiens (Human)), Q9H190.
T5 chain: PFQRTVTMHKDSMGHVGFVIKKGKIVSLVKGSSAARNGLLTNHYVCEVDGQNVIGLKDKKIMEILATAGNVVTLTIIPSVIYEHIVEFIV
Kind of assay: G assay titration, PDZ 5 ug/ml.

Assay [8] deals with T6, GST-KIAA1526 PDZ domain 1 (Homo sapiens (Human)), Q9P202.
T6 chain: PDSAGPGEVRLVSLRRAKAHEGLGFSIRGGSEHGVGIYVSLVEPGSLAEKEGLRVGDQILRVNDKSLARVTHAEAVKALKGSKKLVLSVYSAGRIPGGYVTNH
Kind of assay: G assay titration, PDZ 5 ug/ml.

The target of assay [9] is T7, GST-SYNTENIN PDZ domain 1 (Homo sapiens (Human)), O00560.
T7 chain: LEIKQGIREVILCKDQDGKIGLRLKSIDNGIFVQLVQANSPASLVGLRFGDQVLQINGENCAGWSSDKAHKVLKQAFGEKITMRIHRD
As to the kind of experiment: G assay titration, PDZ 5 ug/ml.

For assay [10], the target named is T8, GST-MINT1 PDZ domain 1 (Mus musculus (Mouse)), B2RUJ5.
T8 chain: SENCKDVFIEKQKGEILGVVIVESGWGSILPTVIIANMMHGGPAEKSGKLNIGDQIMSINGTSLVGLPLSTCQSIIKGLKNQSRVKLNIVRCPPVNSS
As to the kind of experiment: G assay titration, PDZ 5 ug/ml.

Assay [11] addresses T9, GST-TIP-1 (Example 3) (human), O14907.
T9 chain: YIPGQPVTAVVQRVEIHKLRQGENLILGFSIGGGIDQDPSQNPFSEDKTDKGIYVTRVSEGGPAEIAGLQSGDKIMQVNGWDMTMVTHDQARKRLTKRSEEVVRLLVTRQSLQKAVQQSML
Kind of assay: G assay titration, PDZ 0.1 ug/ml.

Assay [12] concerns the target GST-DLG1 PDZ domains 1, 2 (Homo sapiens), Q12959. Kind of assay: G assay titration, PDZ 0.1 ug/ml.

“And” between values parts separate entries of the source, which are not always exact repeats. Identical values can stand only once.

GST-TAX IP2 PDZ domain 1 [GST: P08515], sequence (P08515 whole entry, the tested form may be a part): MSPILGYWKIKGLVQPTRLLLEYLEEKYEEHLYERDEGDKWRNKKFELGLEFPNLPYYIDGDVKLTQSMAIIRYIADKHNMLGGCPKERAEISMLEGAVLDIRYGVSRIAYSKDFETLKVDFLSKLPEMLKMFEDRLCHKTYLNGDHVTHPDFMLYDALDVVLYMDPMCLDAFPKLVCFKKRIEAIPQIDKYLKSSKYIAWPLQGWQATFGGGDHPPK

A word on the Kd: it is the equilibrium constant for the complex coming apart. High values mean lower affinity, low ones higher affinity. AWDDSARAAGGQGLHVTAL (modifications not checked) [LPAP] registered a Kd in [1] of 1500 nM.
For VGTLLLERVIFPSVKIATLV (modifications not checked) [AdenoE4 typ9], the Kd in assay [2], in assay [3], in assay [4] and in assay [5] was 100 nM each time.
VPGALDYAAFSSALYGESDL (modifications not checked) [a-actinin 2]: in [6], the Kd amounted to 2500 nM.
For ILNSIQVMRAQMNQIQSVEV (modifications not checked) [ephrin B2], the Kd in assay [7] and in assay [8] was 5000 nM in each case.
KTMPAAMYRLLTAQEQPVYI (modifications not checked) [MINT-1]: the Kd in [9] worked out at 800 nM; in assay [10] it was 2000 nM.
QISPGGLEPPSEKHFRETEV (modifications not checked) [TAX]: the Kd in assay [11] was 5 nM and 6 nM; in [12] it was 200 nM and 130 nM. Besides, the maximum OD (450 nm) in assay [11] was 3.3 OD and 2.1 OD; in [12], 1.6 OD and 3.4 OD.
